Experimental data: the DeepSol protein solubility set

Assay: soluble on expression in E. coli; label from the status in PepcDB or PDB records
With “GPGSMENKLLSAPQNTVNPIIEKKRVVSCGMCEVDTTKLLEELRKVKENLSEVIDECIFLENQCEMTEKRLKSELLDRDKRIADISSALMEMVKYTSLLERQVIASAFTTLGSAMKRAPAIDMCRNISLREVASAVRERGESSGSRSSAKRKTRNGALYSEAKMAEEKNAFLLSVDEACALVNGLLREKVNLAAKIGEVAFHVNNAIARGERTSPALPDASSENVDDLHQSILNLTKQLSACGNEGDEEKNLKQVPSQHTAETEEPRQPQGLIAEKEDNTSRPQSPSQTQPPAGLASLGPHILDISRSSLPAVSITTQKGEGECGDITTESLVKKLAAAEEKCMAVEKQSRREREELHAELAYLRNSSREEKEEYNTLIERLTVELEILVAENAVMRKRIKGRKHSRDKIE” the “soluble on expression in E. coli” value was “not soluble”.
In the case of “GPGSMEPNFFNNSGLMLLCKDGSAVRAIDVLKDAEYVLMYFSAHWCPPCRTFTPMLKSFYETHHAKKKFEVVFMSSDRSEEEMMSYFRESHGDYYCLPYADARSMARVWGDTYKFKTIPTLLVFENANPRKLIARCGREMVIKDPLGNLFPWPDADAQQPAESFIFDYTRKAAIVLGISVLLYSLISRSL”, the “soluble on expression in E. coli” value was “not soluble”.
For “GPGSMGQHSAKEFRGSRRGESNSGVFPLGPGHAHVGMGSTKKPLGIHTSAVQNNVLRQRNQHRRVMHEEGGSHPRGQEADGSHGEDIAEEKFPVVIRYAAHDVRSLLSSNEKVYVAVESLNWSKLPMTASEDSFYAIVELPQGPQRFRFVVGETEVVDTAQPIEDIAEGTPLLEPRGDVGHKGETRANVIHVNKALLLTKEDEEVPDDGSGWGQEEIIHKEDRKHPPIMPVHLRYTPVNTPLTAARCALDGFMRTTDEDTVSPENLPIPLSVTVNHVYFQRREDHCVTAMTTRFCNKYSTMVYYSKAEPTASLQ”, the “soluble on expression in E. coli” value was “not soluble”.
For “GPGSMGRASKDKRDIYYRKAKEEGYRARSAYKLLQIHEEFNILDPAEIRTGAVDLCAAPGSWSQVLAQHFKMISANLTAASEGDSLPAQTPRVVAVDLQEMAPIDGVTLLQGDITSEVTAREIIRLLNAPTSTGVVRTDDEQQQPQPASSSFSSSAPSPALGASPRKADIVLCDGAPDVTGMHELDEYLQHHLLLAALHITTFVLRAGGCFLTKIFRGPNTAFLVAKSQLFFQQVRVVKPKSSRNASMESFLLCQGFRMPLGYVPRFVGAAAPAAASSATTGCSRGAASASAGCGSRVEADNEEGVKGERSETAIGSGGPLRASGFTPEAPLYCYDTTASFSHASDGGAAAAATVHDVAHHNQRTSCTLADGVLAPFLSCGDLSGFDADMCYDRDEDADVLEPVQPPLQAPYLAAAAASPSQLAGVADGRDTEADASQKKKIRVESPTAIAGRDSSTGGEEQQ”, the “soluble on expression in E. coli” value was “not soluble”.
In the case of “GPGSMHLSELCRDSNIDVIIARLRQVAPLEPAPAFSLSEGAADDDTTPATGHSDFHGLWSYQDNDGRTAFHWAIALKNFDLARKLMQAPYNSPVLTEDEEWSTPFATACSVGAPLDLLREILDRSVVELAAHMKQKETQQNPTSEEQNSSSAAVTEPAEGSSDGKPTKFLSDMPGILQPVDGTPASISAVLVDAEDATGQTPLLLAVGRGHLSIVRFLLENGANLMHQNRRGQSCLHRAVNRGNMELVEFLVSTSENNAKSKAVHRVWMDLRDKHGDSALFYASMDNNEEIGRYLLRHGADRELRNADGKAFWEV”, the “soluble on expression in E. coli” value was “soluble”.
For “GPGSMIARAIANRAACTFLNISSSSLMSKWMGDGEKLVRCLFAVATVKQPSVIFIDEIDSLLSMRGEGETDSVRRVKTEFLVQLDGVATDRGDRVLLIGATNRPDELDEAARRRMEKRLYIPLPDEAARRELIQRLLKSLGPSEAGEDGAIGNAGEAASTATATTTTQVTHTLTDADLDTLVRSTDGYSGADLKQLCREAAMGPLREMSIMQLSAVAAADLRPVQRKDFRQALKRLKPSVGPAEVQRYVEWNKLFGSFNEHDDDDDDELEHHEGHGAC”, the “soluble on expression in E. coli” value was “soluble”.
For “GPGSMIGAPWPPEAVFGNTVDRVASPAPVPERKISIADQLHLPLSRFVEKMSWGEKRRVQILHGMLYPATVYLLDECSTDIDVAERRTVLELVRQECEAKDGCCVYATHIFDGIEGWATHLLLMEGGRVVDFKAVEKLTLPLEDYALQFMSKRAHAARGVDGVAAASLSHGSSAAISTTSPACPTTAAAACPTSATTDAPVTYWPRGHADEKRSEIVINCAQLNYKDVFKNLSFQVFRGERVLLCGGNGTGKSTLLNMLGGKQFFDNRQGSLSVLGKRCYDDMLLNALVSYGGDWWTAVPGGEVHVREMLQLRTSRAERLCEMLAVDMDWDVRHISAGEQKRVQLLLHLLDDKPVVLLDEATTDLDVYQRHSLLQFLYEESVQRGVTVVYSTHIFGGVEGWANVVVLLDRTVRGVHAVWRASEGQPIVLQRVVDAIVSLKAREVF”, the “soluble on expression in E. coli” value was “not soluble”.
For “GPGSMKKCWVFDCAAPGLYCEPRRLLKPFSTDSILDAAGRAFETVEDGLKATTWRTHHAFSARCGLTSVTRSDSTTCGKGVEESSVSRSPEDYREWHADFHLRSPSAEPHVLLSVAPHYLPSRGSGNADDGRKMEVVGSRGRWLKPWRPQTAEEQAAYDAAVLGTPLIWEEPLVLSLDCTADGVFLWSEDHGIYGEKVANRCFERHSSDAGDDSAEFKQEAFLRFRWSEQPPAQTSSVGSGRHEMKEEHVESPNVSKCGELRVFRGQRTKVEAEEPHVERISYEEADVDAGSGGFLWQSVLHRIISCGPVPKEVYFAPYVTLMESGDEVSLL”, the “soluble on expression in E. coli” value was “not soluble”.
With “GPGSMLDAATGKSKGFGFVLFDEEEKGAKAYKALNRKMTRACGHSFTLVIYPSNHNGKIFTEESNALYIRNIPISIGQEKMERFLRTFGNLIYFAMREDHYGNPVWVVYAEYETVDDAKNALAKLHGNNTYFHGSVPILAKFEDSDDAKKERRRRRDGMQTHDRTAGAFFRHRSATTRTLDRFTPLPRR” the “soluble on expression in E. coli” value was “not soluble”.
For “GPGSMLLPRTDSHDPDANDADPRSSSSAPSVSAPALSFTTTADALASTPLSNTNPCAAYTWLPDTRSTAPPDATTRALAYNAYSPPSTAASSATPPPTSSSTAPSTTTVRPPVITVTRATPDTTSTDRTSRRPDSTSTGAYGEDCEPGRYTSGVDLAATSRESVTVSTDPAGNVPVSTSAPFSAST”, the “soluble on expression in E. coli” value was “soluble”.
With “GPGSMLRCNISQRVPTHPVVSVKSGLVFERSLVEKYVDEHGRCPVTGDPLRKEDLITAQGAAPDASIASSGSLGAASVPTLLERLQVEWEGVALEQFSLRQQVTQLQLELAHALQQYDAACRVIARLSKELDSLRGGKAVAAEETDKGPAVVVVPAPVLRRMDAAEAAERQARKQRKAAAGSTAATPSQLTEEAQWVATPSSSASASSARSAVRVAAAADASSSGVFVSAVTGDHAIVRYSPDGFSEEARGIGHTATVHTLASQPGDILLSAAEDLTVRVWSTKGAALTVMHTLRYASGVVAMSQRTVGGAYMLCGAGDGVLTLSDLESGAHVVATAPLTLDTTSGALTCVELHPYASLAAVAFQPTELQLWDAREMRADTFISHVRGTAPRTHICSASFSADCVSLAAGLTDGSVYVWDLRQVLAPVAVLPPSADAVPATVRYAPDGRSLVVGGHGVTLYDCARLSASSTAVEAVATAGLKASAVCDVCWTTSGTDVLCGSVDGVVRLYSTAAGAT” the “soluble on expression in E. coli” value was “soluble”.
With “GPGSMLRSLFGRPSLAVLNNYGHMARPASPLLCSQRGVFADRVRAGMILKVDKRYYRVLANTRSQKGQNAASFNIKLTEVGTGRKKEVTAGHGHDFAEARAERVRLLFSGFDDDDMACFVYPEHSSDAGKEVNIPGDSLPELQQKFLCCGMPVDVLHIMPDDDESPNEKDIWSEVVMPSNYTYTVEKLTLKGMYKMAAFVECDGIIGVNDSVQVNDKVKVVIKPDGTAAFGGRAT” the “soluble on expression in E. coli” value was “not soluble”.
With “GPGSMLSRIKRQQEEAQAATRSGGESAINQPGQKESMAVLRLKNDLDNLDGICSKVVIPDPDNMLRMKVTVRPSRPSIWHGGFFDFLLEFREEYPYEGPRVRYVGPNRVWHPNIEGSEFAEKEGMEKASRKTEWSVCLSFQTDWKPTFSLRDVIIMIELLFQDPNPDDPLHGTSKQAAQMMKDDPVRFRTKARYWMSGHYID” the “soluble on expression in E. coli” value was “soluble”.
With “GPGSMNCDQSPEAPCIVYICKLIDTQYLVGRVVGSVENHDGAFIGFGRVYSGRLRAGQPVYVHSDGVVVEATVGSVYLFRGAGLEETSEVSAGFLCGVGGLTPCITKYATISSVPNMPPFKPLVLQSTSIVRLSVFPKDPRSLQELERGLRLLYKVDPQVEVSMLPTGEHVIGTAGEVHAERCLKDLIDTFAQVEVVASEPLVSFRETIVSNLSAKPKPHTASLMDGAFHVTLQARPLPAEVLELIKDDGKNSGNNPQLLRQAVAALAEHRRFSADVKNGVVSSGPSRLGFLGAVLLANFDGTADPVACWATLQDWKESVVAGFQAACESGPMAQEPLYGVAFVVTNIFVDADSDISGGMVLPSVREACRAAMKLHPRRLVEPVYECTVYSSGFTQGKIYASLSRRRSEIVEEVPNEGSDLFYIRCWLPAVEAFGLQDELRVQTQGASTAQLQMSHWEVIDADPYFVPTTKEEFEEHGAEVATKNIAEQLLERIMRRKGLYRERVVENAEKQKFSLKGA” the “soluble on expression in E. coli” value was “not soluble”.
For “GPGSMNPYYAAPPPPPQQQQSRPSVDLDDLFGGPTAANEHKPFHAAPGEPAPPSYDALNGGYSSAPPPAHHAAASEPQQSHNGNISGNQSLYYGAAHQQQQQQQSYGVPAAVPASASPYGMSSPPPAFSSSSSITPGTAPPLQPQPQQQQYGAYPAMPASGMAPPAPPLQQQPPQVYVQPQPQPQPMPGPVHQQQQSFAQNSSSSVSPSGAAAVAGPTAAAGVGSGAASSRSAEEEDRLQLERIIRLRRELELEQEREQRKKEELQTWGCPICTFRNKLNEVKCEMCGSTRPGYTAPASTEPPAQHQQQQHQPRPAATPSQVNAGVTDWQCGMCLAPNEAHAERCKVCYAYRSSGIPVPTASPSGAAANANHNGVVSNTPFTTNWKCSVCGEVNPPSKANCKVCSGFQRNGTAVTDAVPAPSTGSGHGAQATSSADPPLPTVWSCSVCTFENSVSAAVCKACESGQRPRHLAPKRDKEKSASSKQHDSRGSGAKDGGGDGEKKCSSSKSQWPCGTCTFLNPIGRKKCDMCGAKRPESYAAEADTTEARAAAKQEAQDDAEEVAWQDDDSVTECNNCHTTFTFLIRRHHCRLCGYVFCAHCSSYSVPLTMGSLPQRVCVNCYKARLEEEKKTKKARRWLDS”, the “soluble on expression in E. coli” value was “soluble”.
For “GPGSMNRDPQNALLLEQMAQKTKRLLLQRSPSTVNGIRSFSRSLGIADDLGSTQVTAEELQHALQENNVSLEEHELQNIFTVLDRTGKGTIDPTDFIAVMCNNLGPLRKVWLRRVWRMFTKDPDDGSVQVCELQRQFIAEGHPAVVRHETTAAEVRKDFESAFNESTNPDGKISAQEFAEYYAGVSVSCSNDESFVALLRGVWPLPGVSRDFSLSLAKGEAQYQGSYHTEQSLAEKTAVASREAVRSALMRMIRCDHAPVALSSGAAARALCLSLAQADEAGSGFVSEAVFVGALRTHRLYVPNTSVLECLDTNGDGTVDIKYYEELLLPSPSAARLMLLARLWSRCFENKDAAYRVPVQDLHRKYHASSPADKDAFLTAWDVRTAVGGKVELEELVQWYVPQSAAVQRDKDFEALLHRQWGKYDE”, the “soluble on expression in E. coli” value was “soluble”.
With “GPGSMNVCSNTTKDPLTLMAMWGSMKGYNPEQGFSFEGPEKRLEVILRSTLETHVDGLRSLDDSVWSGVVGSLNAQIVSRESNEYINSYVLTESSLFVMKNRIILITCGTTTLLNSIPNILEAISAVRGELEWVSFMHKNYSFPWMQKGPHTSLADEFATLKQHFPTGKPYIFGPVDSDHYFLFCYDDIIRPCSSEDDTQLSMTMYGLDKEQTKYWFRDRFISTSAETAAIRAATHLDRVVDGTWTLHDLQFEPCGYSINAIRDEEYQTMHITPEDHCSFASYETNSRATNYSDRMKKVLGVFRPQRFTVIVFLDPESPVGKAYNEGKGIGVEPEYYPEYSLLHRTTNEFAPGYVAMKINYVRTAAVEETDAAVGGAEPGAKSGPD” the “soluble on expression in E. coli” value was “not soluble”.
